The values below are quoted from earlier work in publication PMC1562422.

As usually defined, the Kd is the equilibrium constant for the complex coming apart.

Data set [1] addresses IL2 receptor γ chain (Homo sapiens) (UniProt P31785).
For data set [2], the target named is IL2 receptor β chain (Homo sapiens) (UniProt P14784). Briefly: SPR. A general note: In SPR one partner is held on a chip, and binding of the other changes the refractive index at the surface.
For data set [3], the target named is IL2 receptor α chain (Homo sapiens) (UniProt P01589). Kind of data set: ITC. For orientation: Isothermal titration calorimetry measures the heat released or taken up as one component is titrated into another.
In data set [4] the target is IL2 receptor β chain (Homo sapiens) (UniProt P14784). Kind of data set: ITC.

IL2, sequence (P60568 21-153): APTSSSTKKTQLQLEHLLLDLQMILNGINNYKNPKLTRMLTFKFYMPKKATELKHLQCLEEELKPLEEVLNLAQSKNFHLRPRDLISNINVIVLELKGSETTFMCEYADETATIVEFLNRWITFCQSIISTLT
UniProt P14784, sequence (P14784 27-240): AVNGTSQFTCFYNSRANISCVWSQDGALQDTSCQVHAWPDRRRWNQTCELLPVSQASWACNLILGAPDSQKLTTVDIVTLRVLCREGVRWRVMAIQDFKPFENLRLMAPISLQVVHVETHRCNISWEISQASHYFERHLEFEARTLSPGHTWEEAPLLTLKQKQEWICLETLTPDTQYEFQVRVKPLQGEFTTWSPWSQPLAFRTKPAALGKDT
UniProt P31785, sequence (P31785 23-262): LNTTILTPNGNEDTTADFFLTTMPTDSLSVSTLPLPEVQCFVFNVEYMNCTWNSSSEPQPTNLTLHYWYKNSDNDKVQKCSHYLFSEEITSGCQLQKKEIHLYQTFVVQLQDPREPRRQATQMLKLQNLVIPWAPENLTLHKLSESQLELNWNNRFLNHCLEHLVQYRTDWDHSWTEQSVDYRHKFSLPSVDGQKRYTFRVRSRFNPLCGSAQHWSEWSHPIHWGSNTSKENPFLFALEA

Turning to IL2 (from UniProt P60568), the Kd in data set [1] is more than 700000 nM; in data set [2], 450 nM; in data set [3], 10 nM; in data set [4], 144 nM.

In the case of “IL2 receptor α chain (from UniProt P01589)”, in data set [4], the Kd is 278 nM.
